The values that follow come from patent US12116424 (WISCONSIN ALUMNI RESEARCH FOUNDATION, dated 2024).

B1: 10-mer (peptide)
peptide: SMSKACFMFV
modifications: not fully specified; thiolactone ring Cys6-Val10 (Cys side chain to C-terminal carboxyl)
B2: 8-mer (peptide)
peptide: SKACFMFV
modifications: not fully specified; thiolactone ring Cys4-Val8 (Cys side chain to C-terminal carboxyl)
B3: 12-mer (peptide)
peptide: DSSMSKACFMFV
modifications: not fully specified; thiolactone ring Cys8-Val12 (Cys side chain to C-terminal carboxyl)
B4: 14-mer (peptide)
peptide: VADSSMSKACFMFV
modifications: not fully specified; thiolactone ring Cys10-Val14 (Cys side chain to C-terminal carboxyl)
B5: 13-mer (peptide)
peptide: ADSSMSKACFMFV
modifications: not fully specified; thiolactone ring Cys9-Val13 (Cys side chain to C-terminal carboxyl)
B6: 11-mer (peptide)
peptide: SSMSKACFMFV
modifications: not fully specified; thiolactone ring Cys7-Val11 (Cys side chain to C-terminal carboxyl)
B7: 9-mer (peptide)
peptide: MSKACFMFV
modifications: not fully specified; thiolactone ring Cys5-Val9 (Cys side chain to C-terminal carboxyl)
B8: 15-mer (peptide)
peptide: KVADSSMSKACFMFV
modifications: not fully specified; thiolactone ring Cys11-Val15 (Cys side chain to C-terminal carboxyl)
B9: Se AIP-I D1AS6A (peptide)
peptide: ASVCAAYF
modifications: not fully specified; thiolactone ring Cys4-Phe8 (Cys side chain to C-terminal carboxyl)
B10: Se AIP-I (peptide)
peptide: DSVCASYF
modifications: not fully specified; thiolactone ring Cys4-Phe8 (Cys side chain to C-terminal carboxyl)
B11: Sa AIP-IV (peptide)
peptide: YSTCYFIM
modifications: not fully specified; thiolactone ring Cys4-Met8 (Cys side chain to C-terminal carboxyl)
B12: Se AIP-I D1AV3AS6A (peptide)
peptide: ASACAAYF
modifications: not fully specified; thiolactone ring Cys4-Phe8 (Cys side chain to C-terminal carboxyl)
B13: Sa AIP-I (peptide)
peptide: YSTCDFIM
modifications: not fully specified; thiolactone ring Cys4-Met8 (Cys side chain to C-terminal carboxyl)
B14: Se AIP-II (peptide)
peptide: NASKYNPCSNYL
modifications: not fully specified; thiolactone ring Cys8-Leu12 (Cys side chain to C-terminal carboxyl)
B15: Sa AIP-II (peptide)
peptide: GVNACSSLF
modifications: not fully specified; thiolactone ring Cys5-Phe9 (Cys side chain to C-terminal carboxyl)

Bridges are numbered along the chain shown (N, C = ends). Where no end group is shown, it is not given here. [ ]: non-standard residue; d: D form.

One assay addresses T1, L. monocytogenes AgrC (Listeria monocytogenes (EGD-e)). In words: cell-based or functional assay.
As to B1, the “EC50 (agr-GFP reporter, ΔagrD strain)” value is 21.5 nM; the “Max Activation (agr-GFP reporter, ΔagrD strain)” value stood at 110%; the “Max Inhibition (agr-GFP reporter, wild-type strain)” value was determined as 0%.
Consider B2, for which the “EC50 (agr-GFP reporter, ΔagrD strain)” value came to 68.6 nM; the “IC50 (agr-GFP reporter, wild-type strain)” value (shortened to “IC50”) is 842 nM; the “Max Activation (agr-GFP reporter, ΔagrD strain)” value was 71.5%; the “Max Inhibition (agr-GFP reporter, wild-type strain)” value stood at 29.4%.
Consider B3, for which the “EC50 (agr-GFP reporter, ΔagrD strain)” value amounted to 43.4 nM; the “Max Activation (agr-GFP reporter, ΔagrD strain)” value amounted to 116%; the “Max Inhibition (agr-GFP reporter, wild-type strain)” value turned out to be 0.26%.
The corresponding values for B4 are 39.9 nM, 105% and 0%.
With B5, the “EC50 (agr-GFP reporter, ΔagrD strain)” value was 29 nM; the “Max Activation (agr-GFP reporter, ΔagrD strain)” value came out at 108%; the “Max Inhibition (agr-GFP reporter, wild-type strain)” value came to 0%.
On to B6, for which the “EC50 (agr-GFP reporter, ΔagrD strain)” value amounted to 14.3 nM; the “Max Activation (agr-GFP reporter, ΔagrD strain)” value was 111%; the “Max Inhibition (agr-GFP reporter, wild-type strain)” value came out at 3.9%.
B7: the “EC50 (agr-GFP reporter, ΔagrD strain)” value came to 23.5 nM; the “IC50” value is 416 nM; the “Max Activation (agr-GFP reporter, ΔagrD strain)” value was 93.6%; the “Max Inhibition (agr-GFP reporter, wild-type strain)” value was 8.89%.
With KACFMFV (bridge 3-C; also: thiolactone: Cys3 side chain to C-terminal carboxyl) [7-mer, K-A-(C-F-M-F-V)], the “EC50 (agr-GFP reporter, ΔagrD strain)” value came to 61.7 nM; the “IC50” value worked out at 866 nM; the “Max Activation (agr-GFP reporter, ΔagrD strain)” value came out at 64.6%; the “Max Inhibition (agr-GFP reporter, wild-type strain)” value is 38.3%.
For B8, the “EC50 (agr-GFP reporter, ΔagrD strain)” value is 22.2 nM; the “Max Activation (agr-GFP reporter, ΔagrD strain)” value stood at 122%; the “Max Inhibition (agr-GFP reporter, wild-type strain)” value was found to be 0.23%.

In a further assay the target is T1, L. monocytogenes AgrC. In words: cell-based or functional assay. The source holds these as a separate data set.
For KA[dC]FMFV (bridge 3-C; also: thiolactone: dCys3 side chain to C-terminal carboxyl) [7-mer C3dC], the “IC50” value was 3800 nM; the “Max Activation Observed (agr-GFP reporter, ΔagrD strain)” value is 7.08%; the “Max Inhibition Observed (agr-GFP reporter, wild-type strain)” value (“Max Inhibition Observed” below) amounted to 49.3%.
Taken in the same sequence, the figures for KA[dC]F[dM]FV (bridge 3-C; also: thiolactone: dCys3 side chain to C-terminal carboxyl) [7-mer C3dC/M5dM] were 1290 nM, 7.89% and 88.9%.
As for KACF[dM]FV (bridge 3-C; also: thiolactone: Cys3 side chain to C-terminal carboxyl) [7-mer M5dM], the “EC50 (agr-GFP reporter, ΔagrD strain)” value was 8.29 nM; the “Max Activation Observed (agr-GFP reporter, ΔagrD strain)” value came out at 71.9%; the “Max Inhibition Observed” value is 18.5%.
Consider KKCFMFV (bridge 3-C; also: thiolactone: Cys3 side chain to C-terminal carboxyl) [7-mer A2K], for which the “EC50 (agr-GFP reporter, ΔagrD strain)” value worked out at 185 nM; the “IC50” value stood at 359 nM; the “Max Activation Observed (agr-GFP reporter, ΔagrD strain)” value worked out at 64.8%; the “Max Inhibition Observed” value is 51.8%.

The next assay deals with T1, L. monocytogenes AgrC. In words: cell-based or functional assay. This is another data set of the same source.
On to INCAFLL (bridge 3-C; also: thiolactone: Cys3 side chain to C-terminal carboxyl) [Sa AIP-III D4A], for which the “Max Activation (agr-GFP reporter, ΔagrD strain)” value is 12.3% and the “Max Inhibition (agr-GFP reporter, wild-type strain)” value turned out to be 5.87%.
For NAAKYNPCASYL (bridge 8-C) [Se AIP-III], the “Max Activation (agr-GFP reporter, ΔagrD strain)” value amounted to 8.73% and the “Max Inhibition (agr-GFP reporter, wild-type strain)” value was determined as 0%.
Taken in the same sequence, the figures for B9 were 12.4% and 0%.
Take B10: the “Max Activation (agr-GFP reporter, ΔagrD strain)” value was 8.65% and the “Max Inhibition (agr-GFP reporter, wild-type strain)” value came to 0%.
With B11, the “Max Activation (agr-GFP reporter, ΔagrD strain)” value came to 9.81% and the “Max Inhibition (agr-GFP reporter, wild-type strain)” value is 8.56%.
With B12, the “Max Activation (agr-GFP reporter, ΔagrD strain)” value amounted to 12.1% and the “Max Inhibition (agr-GFP reporter, wild-type strain)” value came to 0.06%.
In the case of B13, the “Max Activation (agr-GFP reporter, ΔagrD strain)” value stood at 12.2% and the “Max Inhibition (agr-GFP reporter, wild-type strain)” value came to 1.29%.
Taken in the same sequence, the figures for B14 were 8.45% and 0%.
INCDFLL (bridge 3-C; also: thiolactone: Cys3 side chain to C-terminal carboxyl) [Sa AIP-III]: the “Max Activation (agr-GFP reporter, ΔagrD strain)” value was determined as 11.3% and the “Max Inhibition (agr-GFP reporter, wild-type strain)” value is 0.64%.
As for B15, the “Max Activation (agr-GFP reporter, ΔagrD strain)” value was 12% and the “Max Inhibition (agr-GFP reporter, wild-type strain)” value was found to be 0%.
